# Measured values as given in patent US7439329B2, “GEF-H1b: biomarkers, complexes assays and therapeutic uses thereof” (Sugen, Inc., priority 2002, dated 2008).
# Legend:
# GEF-H1S = molecular target: T1, GEF-H1S (Homo sapiens, UniProt Q92974, INS962GETLAETWTR); assay: Pull-down of GEF-H1 with PAK4 domains and biotinylated PAK4 peptides; assay type: binding; conditions: biotinylated PAK4 peptides linked to streptavidin beads
# T1 sequence (Q92974 with tags, fused parts or gaps): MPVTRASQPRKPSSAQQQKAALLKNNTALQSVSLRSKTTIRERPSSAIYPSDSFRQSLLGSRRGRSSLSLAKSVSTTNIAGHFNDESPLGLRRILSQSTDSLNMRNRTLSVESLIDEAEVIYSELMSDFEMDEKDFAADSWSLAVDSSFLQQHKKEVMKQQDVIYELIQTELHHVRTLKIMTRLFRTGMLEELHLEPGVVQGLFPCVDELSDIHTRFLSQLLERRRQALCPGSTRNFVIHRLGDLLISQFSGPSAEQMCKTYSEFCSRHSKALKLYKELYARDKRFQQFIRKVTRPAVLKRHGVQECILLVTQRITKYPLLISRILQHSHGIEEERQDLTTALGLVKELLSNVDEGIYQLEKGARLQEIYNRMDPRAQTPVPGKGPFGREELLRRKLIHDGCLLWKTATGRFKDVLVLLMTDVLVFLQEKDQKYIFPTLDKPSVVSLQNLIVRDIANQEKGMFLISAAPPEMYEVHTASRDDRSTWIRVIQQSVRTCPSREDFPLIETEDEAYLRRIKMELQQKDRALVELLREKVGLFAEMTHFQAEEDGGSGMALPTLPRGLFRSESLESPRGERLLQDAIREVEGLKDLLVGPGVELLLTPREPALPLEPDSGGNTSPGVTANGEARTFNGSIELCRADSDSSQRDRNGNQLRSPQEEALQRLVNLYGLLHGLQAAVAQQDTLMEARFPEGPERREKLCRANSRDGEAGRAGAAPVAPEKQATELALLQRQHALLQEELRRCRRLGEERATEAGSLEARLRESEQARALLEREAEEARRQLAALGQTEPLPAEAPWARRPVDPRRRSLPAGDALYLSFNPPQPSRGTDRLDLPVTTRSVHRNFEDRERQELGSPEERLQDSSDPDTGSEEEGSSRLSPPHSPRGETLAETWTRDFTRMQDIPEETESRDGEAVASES
# Description: FIG. 1: (SEQ ID NOs 32-34 respectively in order of appearance) Direct binding of GEF-H1 to PAK4. Lysates were prepared from 293T cells over expressing (a) myc tagged PAK4 alleles or subdomains and incubated with GST, GST-GEF-H1 (787-921) and GST-Maguin-like bound to Glutathione beads (1,2,3,4 bead designation) or (b) GFP-GEF-H1 and incubated with PAK4 biotinylated peptides (291-355) and (276-324) linked to streptavidin beads. An equivalent amount of beads and excess lysates (500 ug) were used. Eluates of beads and total lysates were analysed by SDS-PAGE and immunoblotted with myc or GEF-H1 antiserum; (c) represents a PAK4 gene schematic outlining the regions of PAK4 used to identify the GEF-H1 interaction domain (GID). d, alignment of the GID defined by the minimal binding region of PAK4 with PAK5 and PAK6.
# To confirm the in vitro interaction of GEF-H1S with PAK4, bacterially expressed GST-fusion proteins were generated with the identical sequences isolated by phage display, encoding either amino acids 763-921 of GEF-H1S or amino acids 385-555 from the Maguin-2-like protein. These fusion proteins were bound to glutathione beads and utilized in binding assays with 293T lysates expressing exogenous PAK4.
# Biotinylated peptides derived from the N-terminal region of PAK4 sequence were used to further map the GEF-H1 binding site. […]
# PAK4 = molecular target: T2, PAK4 (Homo sapiens, UniProt O96013); assay: In vitro kinase assay, phosphorylation of substrates by PAK4; assay type: biochemical; conditions: autoradiography
# T2 construct: Glutathione-s-transferase (GST) fused PAK4 (residues 291-591); GST (N); made in house
# T2 sequence (O96013 291-591): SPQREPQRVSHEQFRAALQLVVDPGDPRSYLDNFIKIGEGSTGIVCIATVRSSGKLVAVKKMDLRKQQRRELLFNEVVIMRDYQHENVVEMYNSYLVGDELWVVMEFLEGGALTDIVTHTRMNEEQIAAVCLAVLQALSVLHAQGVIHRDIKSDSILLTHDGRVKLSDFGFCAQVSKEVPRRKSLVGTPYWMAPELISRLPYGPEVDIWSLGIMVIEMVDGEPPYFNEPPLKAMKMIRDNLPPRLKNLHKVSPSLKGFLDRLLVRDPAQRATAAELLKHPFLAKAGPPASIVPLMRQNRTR
# Description: Next examined, was whether GEF-H1 is a PAK4 substrate. In vitro kinase assays were performed using a GEF-H1 GST-fusion protein, a Maguin-2-like GST-fusion protein and GST control protein as substrates for phosphorylation by PAK4.
# The cDNA encoding GEF-H1S obtained in the phage display screen was excised and subcloned into pGEX-4T expression vector to allow for recombinant production of protein for in vitro experiments. The GEF-H1S protein was then mixed with PAK4 kinase and incubated such that PAK4 phosphorylated the GEF-H1S. A portion of this kinase reaction was separated by SDS-PAGE and autoradiographed to visualize the extent of phosphorylation. […] SDS-PAGE is a universal protein separation and visualization technique that is described in Laemmli, Nature, 227(259):680-5, 1970.
# From the phosphorylation experiments described above, two peptides of GEF-H1S were identified as being targets for PAK4-induced phosphorylation. The GEF-H1S target residues were identified by aligning the PAK4 activation loop peptide with the GEF-H1S polypeptide sequence amino acids 762 to 921.
# The following phosphoisomers (phosphate-modified GEF-H1S peptides) were used in PAK4 kinase assays to determine which residues were specifically phosphorylated. Because certain residues were modified to comprise a phosphate moiety (the underlined residues below), they could not be phosphorylated by PAK4.
# Glutathione-s-transferase (GST) fused PAK4 (residues 291-591), GEF-H1 amino acids 763-921 (from phage clone 13.8 sequence, matches KIAA0651) and Maguin 2-like (from phage clone 13.32, sequence matches accession # XP-087831) were purified by standard procedures and as previously described 31. Amino acid sequence of peptides spanning GEF-H1b 807-824 #1008 (RRRSLPAGDALYLpSFNPP) (SEQ ID NO: 28), #1009 (RRRpSLPAGDALYLSFNPP) (SEQ ID NO: 29), #1010 (RRRSLPAGDALpYLSFNPP ) (SEQ ID NO: 30) and #934 (RRRSLPAGDALYLSFNPP) (SEQ ID NO: 3) used for in vitro kinase assays. In vitro kinase reactions were run as described previously 31.
Sequence,interaction with GEF-H1S (GEF-H1S),phosphorylation by PAK4 in vitro (PAK4)
CTPAAPAVPAVPGPPGPRSPQREPQRVSHEQFRAALQLVVDPGDPRSYLDNF (biotin) [amino acids 276-324],strong interaction,–
PRRRSLPAGDALYLSFNPP,–,phosphorylated
RQSLLGSRRGRSSLSLAK [GEF-H1 residues 55-72],–,phosphorylated
"RRRSLPAGDALYLSFNPP [amino acids 807-824, GEF-H1S peptide surrounding Ser 810]",–,high affinity substrate
